The text below walks through data of US20240166767A1 (SCIRHOM, published 2024).

The target of the experiment is T1, endogenous human iRhom1 (RH-30 cells) (human, UniProt Q96CC6 1-855).
T1 construct: RH-30 cells are described as endogenously negative for iRhom2 but endogenously expressing iRhom1; also called iRhom1 endogenously expressed by RH-30 cells
T1 sequence: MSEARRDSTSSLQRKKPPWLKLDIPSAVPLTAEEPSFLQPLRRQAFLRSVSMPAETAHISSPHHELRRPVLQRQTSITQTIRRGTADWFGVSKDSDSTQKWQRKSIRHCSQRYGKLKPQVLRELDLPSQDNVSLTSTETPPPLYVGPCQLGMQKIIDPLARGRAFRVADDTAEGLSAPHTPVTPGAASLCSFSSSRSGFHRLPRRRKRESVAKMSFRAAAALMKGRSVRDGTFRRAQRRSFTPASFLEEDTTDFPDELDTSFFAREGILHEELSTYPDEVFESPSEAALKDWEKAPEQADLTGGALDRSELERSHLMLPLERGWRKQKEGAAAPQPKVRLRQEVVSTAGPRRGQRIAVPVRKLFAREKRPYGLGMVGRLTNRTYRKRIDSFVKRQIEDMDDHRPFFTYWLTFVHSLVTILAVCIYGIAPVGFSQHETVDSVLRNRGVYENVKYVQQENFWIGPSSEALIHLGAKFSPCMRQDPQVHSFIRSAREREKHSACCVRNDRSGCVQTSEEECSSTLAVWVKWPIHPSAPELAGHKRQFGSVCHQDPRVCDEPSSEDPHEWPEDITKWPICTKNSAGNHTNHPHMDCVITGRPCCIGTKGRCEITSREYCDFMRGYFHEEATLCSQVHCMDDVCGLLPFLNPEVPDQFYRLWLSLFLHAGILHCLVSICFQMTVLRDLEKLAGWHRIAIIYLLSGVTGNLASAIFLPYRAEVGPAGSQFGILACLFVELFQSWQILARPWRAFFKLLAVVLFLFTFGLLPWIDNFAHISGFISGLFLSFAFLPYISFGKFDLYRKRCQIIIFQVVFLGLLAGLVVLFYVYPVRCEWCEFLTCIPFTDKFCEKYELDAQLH
As to the kind of experiment: FACS on RH-30 cells (endogenously negative for iRhom2, endogenously expressing iRhom1). Here is the method:
In brief, human RPMI-8226 cells (Deutsche Sammlung von Mikroorganismen und Zellkulturen, Germany), THP-1 cells (American Type Culture Collection, USA) and RH-30 cells (Deutsche Sammlung von Mikroorganismen und Zellkulturen, Germany) were harvested with 10 mM EDTA in PBS, washed and resuspended in FACS buffer (PBS, 3% FBS, 0.05% sodium azide), and seeded in Nunc U-bottom 96-well plates (Thermo Fisher Scientific, USA) at approximately 2×10⁵ cells per well. In order to pellet cells and remove supernatants, the plates were centrifuged at 1,500 rpm and 4° C. for 3 minutes. For primary staining, cells were resuspended in 100 μl per well of either FACS buffer alone (controls) or […] of the antibodies of the invention in FACS buffer and incubated on ice for 1 hour. Afterwards, plates were centrifuged at 1,500 rpm and 4° C. for 3 minutes and washed twice with 200 μl per well of FACS buffer. For secondary staining, cells were spun down and resuspended in 100 μl per well of PE-conjugated goat anti-human IgG F(ab′)2 detection fragment (Dianova, Germany) diluted 1:100 in FACS buffer. Protected from light, the cell suspensions were incubated on ice for 1 hour. […] Finally, cells were resuspended in 150 μl per well of FACS buffer and analyzed using a BD Accuri™ C6 Plus flow cytometer (Becton Dickinson, Germany).

B1: humanized antibody 42-B-02 (antibody, V domains shown)
VH: QVTLRESGPALVKPTQTLTLTCTFSGFSLSTFGRGVGWIRQPPGKALEWLAHIWWDDEKYYNSALKSRLTISKDTSKNQVVLTITNMDPVDTATYYCARIQNYGSNYWYFDVWGQGTLVTVSS
VL: AIQLTQSPSSLSASVGDRVTITCRASSRISYMFWYQQKPGKAPKVLIYDTSNLASGVPSRFSGSGSGTDYTLTISSLQPEDFATYYCQQWNSYPLTFGQGTKLEIK
notes: Tested as whole humanized antibody from transient expression of heavy chain/kappa light chain pairs in CHO cells, detected with anti-human IgG; the general methods speak of human IgG1/Kappa; also called clone 42-B-02
For the molecule B1, the binding result was “no binding (tested: 3 µg/ml)”.
